Results published in publication doi:10.1101/2020.04.13.039982 (bioRxiv, 2020).

Target: T1, 6His-She1 C-terminal fragment (residues 194 to 338) (S. cerevisiae, UniProt P38200 194-338)
T1 sequence (looked up): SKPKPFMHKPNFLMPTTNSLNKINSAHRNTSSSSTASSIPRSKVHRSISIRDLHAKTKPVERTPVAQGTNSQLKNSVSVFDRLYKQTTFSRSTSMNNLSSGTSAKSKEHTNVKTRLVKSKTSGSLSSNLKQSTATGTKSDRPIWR
Experiment: pull-down

binding result: binds
B1: peptide encompassing the C-terminus of Tub1 (amino acids 415-447), wild-type (peptide)
peptide: not shown
